Assay results: article PMC2169363

Assays:
[1] = molecular target: unphosphorylated smooth muscle myosin (chicken gizzard) (chicken) (UniProt P10587); assay: co-sedimentation
[2] = molecular target: phosphorylated smooth muscle myosin (chicken gizzard) (chicken) (UniProt P10587); assay: co-sedimentation

**Q.** For “recombinant 38k protein, full-length (1-207) (natural protein)”, which amount recovered in the precipitate with 1.1 μM myosin (4.0 μM added) [1] is on record?
**A.** 1 µM

**Q.** Which EC50 [1] does the source give for “human p32 (recombinant) (from UniProt Q07021 74-282) (natural protein)” here?
**A.** 1.8 µM

**Q.** For “38k protein (native, purified from chicken gizzard smooth muscle) (natural protein)”, which EC50 [2] is on record?
**A.** 1.4 µM

**Q.** What about the EC50 [1] of the same substance?
**A.** 1.7 µM
